According to patent US20240317841A1:

Tests used:
[1] = target: HA from an H1N1 Swine Eurasian avian-like (EA) strain, A/Swine/Jiangsu/J004/2018 (influenza A virus (H1N1, A/Swine/Jiangsu/J004/2018)); experiment: flow cytometry, HA on mammalian cells; mock 7.62 [Cont'd]
H12 (Influenza A virus) [2] = experiment: FACS, HA on mammalian cells; 2nd only 9.7
H11 (Influenza A virus) [3] = experiment: FACS, HA on mammalian cells; 2nd only 8.1
[4] = target: H7 hemagglutinin (influenza A virus); experiment: BLI, HA-7; printed as kdis
H16 (Influenza A virus) [5] = experiment: flow cytometry, HA on mammalian cells; mock cells 0.96 [cont'd]
H17 (Influenza A virus) [6] = experiment: as above
H18 (Influenza A virus) [7] = experiment: as above
H15 (Influenza A virus) [8] = experiment: as above
H14 (Influenza A virus) [9] = experiment: as above
[10] = target: HA from an H1N1 Swine Eurasian avian-like (EA) strain, A/Swine/Jiangsu/J004/2018 (influenza A virus (H1N1, A/Swine/Jiangsu/J004/2018)); experiment: flow cytometry, HA on mammalian cells; mock 4.30
H17 (Influenza A virus) [11] = experiment: FACS, HA on mammalian cells; 2nd only 4.1
[12] = target: H5 hemagglutinin (influenza A virus); experiment: BLI, HA-5; printed as kdis
H4 (Influenza A virus) [13] = experiment: FACS, HA on mammalian cells; 2nd only 11
[14] = target: H7 hemagglutinin (influenza A virus); experiment: BLI, HA-7
[15] = target: H5 hemagglutinin (influenza A virus); experiment: BLI, HA-5
H18 (Influenza A virus) [16] = experiment: FACS, HA on mammalian cells; 2nd only 5.5
H10 (Influenza A virus) [17] = experiment: FACS, HA on mammalian cells; 2nd only 8.7
[18] = target: H1-CAL (Influenza A virus); experiment: FACS, HA on mammalian cells; 2nd only 7.4
H8 (Influenza A virus) [19] = experiment: FACS, HA on mammalian cells; 2nd only 7.9
[20] = target: H1-SC (Influenza A virus); experiment: FACS, HA on mammalian cells; 2nd only 7.5
[21] = target: HA from an H1N1 Swine Eurasian avian-like (EA) strain, A/Swine/Jiangsu/J004/2018 (influenza A virus (H1N1, A/Swine/Jiangsu/J004/2018)); experiment: flow cytometry, HA on mammalian cells; mock 3.31 [Cont'd]
H16 (Influenza A virus) [22] = experiment: FACS, HA on mammalian cells; 2nd only 6.9
H4 (Influenza A virus) [23] = experiment: flow cytometry, HA on mammalian cells; mock cells 0.96
H11 (Influenza A virus) [24] = experiment: as above
H8 (Influenza A virus) [25] = experiment: as above
H12 (Influenza A virus) [26] = experiment: as above
H13 (Influenza A virus) [27] = experiment: as above
H10 (Influenza A virus) [28] = experiment: as above
H15 (Influenza A virus) [29] = experiment: FACS, HA on mammalian cells; 2nd only 12
H13 (Influenza A virus) [30] = experiment: FACS, HA on mammalian cells; 2nd only 12
H14 (Influenza A virus) [31] = experiment: FACS, HA on mammalian cells; 2nd only 12
[32] = target: HA from an H1N1 Swine Eurasian avian-like (EA) strain, A/Swine/Jiangsu/J004/2018 (influenza A virus (H1N1, A/Swine/Jiangsu/J004/2018)); experiment: flow cytometry, HA on mammalian cells; mock 4.41
[33] = target: H5 hemagglutinin (influenza A virus); experiment: BLI, HA-5; given as kdis
[34] = target: H7 hemagglutinin (influenza A virus); experiment: BLI, HA-7; given as kdis
[35] = target: H5 hemagglutinin (influenza A virus); experiment: BLI, HA-5 [Cont'd]
[36] = target: H7 hemagglutinin (influenza A virus); experiment: BLI, HA-7 [Cont'd]
H16 (Influenza A virus) [37] = experiment: flow cytometry, HA on mammalian cells; mock cells 1.12 [cont'd]
H17 (Influenza A virus) [38] = experiment: as above
H18 (Influenza A virus) [39] = experiment: as above
H15 (Influenza A virus) [40] = experiment: as above
H14 (Influenza A virus) [41] = experiment: as above
H4 (Influenza A virus) [42] = experiment: flow cytometry, HA on mammalian cells; mock cells 1.12
H11 (Influenza A virus) [43] = experiment: as above
H8 (Influenza A virus) [44] = experiment: as above
H12 (Influenza A virus) [45] = experiment: as above
H13 (Influenza A virus) [46] = experiment: as above
H10 (Influenza A virus) [47] = experiment: as above

Binder	Alexa 647-A+ (percent of cells) at 0.4 µg/ml [1]	% cells binding to HA (H12 (Influenza A virus) [2]) [%]	% cells binding to HA (H11 (Influenza A virus) [3]) [%]	koff [4] [s⁻¹]	% cells binding to HA (H17 (Influenza A virus) [11]) [%]	koff [12] [s⁻¹]	% cells binding to HA (H4 (Influenza A virus) [13]) [%]	Kd [14] [nM]	kon [14] [M⁻¹ s⁻¹]	Kd [15] [nM]	kon [15] [M⁻¹ s⁻¹]	% cells binding to HA (H18 (Influenza A virus) [16]) [%]	% cells binding to HA (H10 (Influenza A virus) [17]) [%]	% cells binding to HA [18] [%]	% cells binding to HA (H8 (Influenza A virus) [19]) [%]	% cells binding to HA [20] [%]	% cells binding to HA (H16 (Influenza A virus) [22]) [%]	% cells binding to HA (H15 (Influenza A virus) [29]) [%]	% cells binding to HA (H13 (Influenza A virus) [30]) [%]	% cells binding to HA (H14 (Influenza A virus) [31]) [%]	also measured
FHF11 (antibody, V domains shown) VH: QVQLQQSGPGLVKPSQTLSVTCGISGDSVSSHSAAWNWIRQSPSRGLEWLGRTYYRSKWYNDYAVSVKSRITINPDTSKNQFSLQLISVTPEDTAVYYCARVGAMTFGLLTGGMDVWGQGTTVTVSS VL: EIVLTQSPGTQSLSPGERATLSCRASQSLSRSYLAWYQQRPGKPPRLLIYGASSRATGIPDRFSGSGSGTDFSLTISSLEPEDSAMYFCQYYGDSPLFSFGPGTKVDIK	84.5	86	62	4.95e-05	82	< 1e-07	54	2.03	24400	< 0.001	19900	80	82	88	80	83	20	76	79	79	percent of cells in the gate (H16 (Influenza A virus) [5]): 23.2; percent of cells in the gate (H17 (Influenza A virus) [6]): 98.2; percent of cells in the gate (H18 (Influenza A virus) [7]): 94.3; percent of cells in the gate (H15 (Influenza A virus) [8]): 75.6; percent of cells in the gate (H14 (Influenza A virus) [9]): 75.2; Alexa 647-A+ (percent of cells) at 50 µg/ml [10]: 90.7; Alexa 647-A+ (percent of cells) at 2 µg/ml [21]: 89.2; percent of cells in the gate (H4 (Influenza A virus) [23]): 40.6; percent of cells in the gate (H11 (Influenza A virus) [24]): 42.7; percent of cells in the gate (H8 (Influenza A virus) [25]): 89.2; percent of cells in the gate (H12 (Influenza A virus) [26]): 79.1; percent of cells in the gate (H13 (Influenza A virus) [27]): 75.8; percent of cells in the gate (H10 (Influenza A virus) [28]): 89.7; Alexa 647-A+ (percent of cells) at 10 µg/ml [32]: 90.7
FHF11v9 (antibody, V domains shown) VH: QVQLQQSGPGLVKPSQTLSVTCGISGDSVSSYSAAWNWIRQSPSRGLEWLGRTYYRSGWYNDYAVSVKSRITINPDTSKNQFSLQLISVTPEDTAVYYCARVGAMTFGLLTGGMDVWGQGTTVTVSS VL: EIVLTQSPGTQSLSPGERATLSCRASQSLSRSYLAWYQQRPGKPPRLLIYGASSRATGIPDRFSGSGSGTDFSLTISSLEPEDSAMYFCQYYGDSPLFSFGPGTKVDIK		86	59		82		47					78	79	85	78	80	13	63	75	70	koff [33]: < 1e-07 s⁻¹; koff [34]: 0.000193 s⁻¹; Kd [35]: < 0.001 nM; kon [35]: 16200 M⁻¹ s⁻¹; Kd [36]: 9.76 nM; kon [36]: 19800 M⁻¹ s⁻¹
FHF11v6 (antibody, V domains shown) VH: QVQLQQSGPGLVKPSQTLSVTCGISGDSVSSHSAAWNWIRQSPSRGLEWLGRTYYRSGWYNDYAVSVKSRITINPDTSKNQFSLQLISVTPEDTAVYYCARVGAMTFGLLTGGMDVWGQGTTVTVSS VL: EIVLTQSPGTQSLSPGERATLSCRASQSLSRSYLAWYQQRPGKPPRLLIYGASSRATGIPDRFSGSGSGTDFSLTISSLEPEDSAMYFCQYYGDSPLFSFGPGTKVDIK		87	59		82		49					79	82	85	77	82	11	75	69	70	koff [33]: < 1e-07 s⁻¹; koff [34]: 0.000169 s⁻¹; Kd [35]: < 0.001 nM; kon [35]: 13600 M⁻¹ s⁻¹; Kd [36]: 10.4 nM; kon [36]: 16400 M⁻¹ s⁻¹
FHF12 (antibody, V domains shown) VH: QVQLQQSGPGLVKPSQTLSVTCAISGDSVSSHSAAWNWIRQSPSRGLEWLGRTYYRSKWYNDYAVSVKSRITINPDTSKNQFSLQLVSVTPEDTAVYYCARVGAATFGILTGGMDVWGQGTTVTVSS VL: EIVLTQSPGTQSLSPGDRATLSCRASQSLSRSYLAWYQQRPGKPPRLLIYGASSRATGIPDRFSGSGSGTDFSLTISSLEPEDSAMYFCQYYGDSPLFSFGPGTKVDIK	85.1																				percent of cells in the gate (H16 (Influenza A virus) [37]): 25.7; percent of cells in the gate (H17 (Influenza A virus) [38]): 98; percent of cells in the gate (H18 (Influenza A virus) [39]): 94.8; percent of cells in the gate (H15 (Influenza A virus) [40]): 77.2; percent of cells in the gate (H14 (Influenza A virus) [41]): 80.4; Alexa 647-A+ (percent of cells) at 2 µg/ml [21]: 90.5; percent of cells in the gate (H4 (Influenza A virus) [42]): 72.2; percent of cells in the gate (H11 (Influenza A virus) [43]): 37.8; percent of cells in the gate (H8 (Influenza A virus) [44]): 89.6; percent of cells in the gate (H12 (Influenza A virus) [45]): 75.3; percent of cells in the gate (H13 (Influenza A virus) [46]): 79.2; percent of cells in the gate (H10 (Influenza A virus) [47]): 88.5; Alexa 647-A+ (percent of cells) at 10 µg/ml [32]: 90.6
FHF11v3 (antibody, V domains shown) VH: QVQLQQSGPGLVKPSQTLSVTCGISGDSVSSYSAAWNWIRQSPSRGLEWLGRTYYRSKWYNDYAVSVKSRITINPDTSKNQFSLQLISVTPEDTAVYYCARVGAMTFGLLTGGMDVWGQGTTVTVSS VL: EIVLTQSPGTQSLSPGERATLSCRASQSLSRSYLAWYQQRPGKPPRLLIYGASSRATGIPDRFSGSGSGTDFSLTISSLEPEDSAMYFCQYYGDSPLFSFGPGTKVDIK		85	59	0.000118	82	< 1e-07	48	5.11	23000	< 0.001	16400	79	77	84	78	82	22	66	79	70	
